The DeepSol protein solubility set

Test: soluble on expression in E. coli; label from the status in PepcDB or PDB records

Row | Sequence | soluble on expression in E. coli
1 | MSLRISILQNNNKEVEAVKSEYESKLSKIQNDLDQQTIYANTAQNNYEQELQKHADVSKTISELREQLHTYKGQVKTLNLSRDQLENALKENEKSWSSQKESLLEQLDLSNSRIEDLSSQNKLLYDQIQIYTAADKEVNNSTNGPGLNNILITLRRERDILDTKVTVAERDAKMLRQKISLMDVELQDARTKLDNSRVEKENHSSIIQQHDDIMEKLNQLNLLRESNITLRNELENNNNKKKELQSELDKLKQNVAPIESELTALKYSMQEKEQELKLAKEEVHRWKKRSQDILEKHEQLSSSDYEKLESEIENLKEELENKERQGAEAEEKFNRLRRQAQERLKTSKLSQDSLTEQVNSLRDAKNVLENSLSEANARIEELQNAKVAQGNNQLEAIRKLQEDAEKASRELQAKLEESTTSYESTINGLNEEITTLKEEIEKQRQIQQQLQATSANEQNDLSNIVESMKKSFEEDKIKFIKEKTQEVNEKILEAQERLNQPSNINMEEIKKKWESEHEQEVSQKIREAEEALKKRIRLPTEEKINKIIERKKEELEKEFEEKVEERIKSMEQSGEIDVVLRKQLEAKVQEKQKELENEYNKKLQEELKDVPHSSHISDDERDKLRAEIESRLREEFNNELQAIKKKSFDEGKQQAMMKTTLLERKLAKMESQLSETKQSAESPPKSVNNVQNPLLGLPRKIEENSNSPFNPLLSGEKLLKLNSKSSSGGFNPFTSPSPNKHLQNDNDKRESLANKTDPPTHLEPSFNIPASRGLISSSSTLSTDTNDEELTSNNPAQKDSSNRNVQSEEDTEKKKEGEPVKRGEAIEEQTKSNKRPIDEVGELKNDEDDTTENINESKKIKTEDEEEKETDKVNDENSIEGHHHHHH | soluble
2 | MKSLTVIILYSEREQILEESIQSIWKLNLLEIIILVPNDRSNLYEIAKKHKCHIVLMGKYSTYYDGYEASVKAAKGDVLLFVDSNFLLSTNEMQRFIEPIVTNQADVVLNKIDKLIEIGKCPNMDIVWRKMLNEILSRPDLKSNSILSLPYALTKEVVENIGFNYMEDIVLSHMKIVNQGWRINDQYAINTLSKDETIEEGGYLIKKELSKNEKEKVERYLRGIAKWIEKKGRRVGFTDAGKRRDIVQKLGECKRYPSYHQGWGMHSSIYDGKQLSVIIPVQNEEETIEQVILEARKIEPLEIIVVVNGSTDQTANIAKRLGVTIIEYNERLGHNVGRAIGALEATGDILLFIDGDFSVSGSNLHHFTKAVSAGVDIALNDLNPMLHPPFYVVDVVKYMLNLAYNRPELSNGSLVAIPHAMSRSCLDAIGWESLLCPSLAQVKAILQGYRVECVHYVDVVKPNRIRLMENVSHNGHPPAVLRIIGDHVEALSYLIEQLEMDGKGDLEHHHHHH | not soluble
3 | IALGGGAAKGFAHIGVLKMLEANGLAPSVVAGTSAGSVVGALYASGMDSFKIQTKAVAMDESNIRDLRFFSGGLVQGQKLQNYVNELVGKRPIEKLNMPFGAIATRLEDGQRTMFVRGNVGEAVRASCSIPGVFEPVTIGAYHYVDGGITSPVPV | not soluble
4 | MSCFRGDVDFCPECGNILPLPSRLNTITCPRCSFKISVQDFTSQVIKSSVMFNPLDQSNVAVGSAEDAELKGPVIDRKCSRCNKEGMVYHTRQMRSADEGQTVFFTCIHCRFQEKEDS | not soluble
5 | MLPERVLEILREMKRERIKGASWLAKKGAEAFLTLAEELDESLLEDAIMELREEVVKVNPSMASLYNLARFIPVTNRRDILKSRALEFLRRMEEAKRELASIGAQLIDDGDVIITHSFSSTVLEIIRTAKERKKRFKVILTESSPDYEGLHLARELEFSGIEFEVITDAQMGLFCREASIAIVGADMITKDGYVVNKAGTYLLALACHENAIPFYVAAETYKFHPTLKSGDVMLMERDLIRGNVRIRNVLFDVTPWKYVRGIITELGIVIPPRDIQ | soluble
6 | MGSDKIHHHHHHMSNRIKNIHYGTQRQQLKNLTKKEYQALREMCFLAKNLYNVGTYNVRQHYFNQGEHLNYEANYHVCKENENYKLLNSNIAQQILKEVDSSFRSFFGLIKLAKEGKYDFRGIKSPKYLDKEGFFSIIIGQIRIKEDGILNVPMSPAFKKLYGKVSIKVPQNILEKKIKEIRIIPKHKARFFEIQYCYEIPKSEEVSNQKNALAIDLGLENLCTCVTNLGDSFIIDGKRLKSVNQWANKQNDKIEALKLKKNITAITRKQFKVWNKRNNQVKDYVNKTCFYIIDYCVKNNIGNLIVGYNAKLEKSDNMERKIYRNFIRIPFGEIKGKLEYLCKIKNINFIRQEESYTSKSDFFADDFLPDINVDNVKKYDFKGERITRGQYKSSVGIIINADVNASLNILKKSQVVNLSNLQNNPQILKQPQRVRIS | not soluble
7 | MGSDKIHHHHHHLNAKIVCVSNKQLTISLDDFSGPLDLLLHLIRTQELDIFDLPIAKVTDQFLSFIDNQLNPSLDSAGEYLYMASTLIRIKSRFLLPTVKNEQEDEKEEDPRNELVNALIEYECYQAVTQDMSELEHSRSLSFTRPVAKIPENIEIKPLSAGVTLQDLQKAFLEIANRQKDLHPKKRTIERENFSVADKINEIKTFFGQKKLDSKIEFQYLFKLSSSNDEMITTFLAILELAKDHFILLSQNDEQQIFLTKGEMNA | not soluble
8 | MNRFIIADATKCIGCRTCEVACAVSHHENQDCAALSPDEFISRIRVIKDHCWTTAVACHQCEDAPCANVCPVDAISREHGHIFVEQTRCIGCKSCMLACPFGAMEVVSSRKKARAIKCDLCWHRETGPACVEACPTKALQCMDVEKVQRHRLRQQPV | not soluble
9 | PKAPVTGYVRFLNERREQIRTRHPDLPFPEITKMLGAEWSKLQPAEKQRYLDEAEKEKQQYLKELWAYQQSEAYKVCTE | soluble
10 | MVTNVEGDMNYCCKVDLKPWHFWNKKGYKSFDVEGNPVEVYWDFRSAKFTSSPEPSSDFYVALVSEEEVVLLVGDYKKKAFKRTKSRPALVEAALFYKKENVFGKKCFTTRAKFYDRKKEHEIIVESSTSGPKEPEMWISIDGIVLIQVKNLQWKFRGNQTVLVDKQPVQVFWDVYDWLFSMPGTGHGLFIFKPGTTEDSDMEGSGHGGGGGGESDTSTGSRYYSTKSSNPWPPEFCLFLHAYKLE | soluble
11 | NSNNKRAPYWTNTEKMEKRLHAVPAANTVKFRCPAGGNPMPTMRWLKNGKEFKQEHRIGGYKVRNQHWSLIMESVVPSDKGNYTCVVENEYGSINHTYHLDVVERSPHRPILQAGLPANASTVVGGDVEFVCKVYSDAQPHIQWIKHVEKNGSKYGPDGLPYLKVLKAAGVNTTDKEIEVLYIRNVTFEDAGEYTCLAGNSIGISFHSAWLTVLPAPGRE | soluble
12 | MGSDKIHHHHHHMLAKRIIACLDVKDGRVVKGTNFENLRDSGDPVELGKFYSEIGIDELVFLDITASVEKRKTMLELVEKVAEQIDIPFTVGGGIHDFETASELILRGADKVSINTAAVENPSLITQIAQTFGSQAVVVAIDAKRVDGEFMVFTYSGKKNTGILLRDWVVEVEKRGAGEILLTSIDRDGTKSGYDTEMIRFVRPLTTLPIIASGGAGKMEHFLEAFLAGADAALAASVFHFREIDVRELKEYLKKHGVNVRLEGL | soluble
13 | MSLTSEIIDVHMHCFVGRQQETALARDIALLRREGLRRMVVAGLVNTHPDPETTWNLIPDYVENHGDPHFNEADDLLALAESVDHALLPFVDTRYLRGDVATALDGYMGQGFKGVKGIYLPDNENDLGVGNVPDTLGISLEQYRRREWDLFAYAENHDLPLLYHMDARRYGDVMKDLLDDFPRVRVNFPHLGIGRKAFSAFLDRYPNIFTDIAGLLPYMRSNPASYRDFIMHYPDRICFGTDTFLYQAGSALDYISMVRELRLPEEIEAQVFNGNPTRFLGCVLYGAEGHHHHHH | not soluble
14 | MSLMPFHLAIPVHDLPAARRFYGEVFGLSEGRSAEHWVDFDFFGHQLVIHQHPQTDSQRHAGSNPVDGHDVPVPHFGVVLAWDDWHALAERLQQRGTRFVIEPYIRFKGQVGEQATLFLFDPCGNALEFKSFRDMGQLFAKLEHHHHHH | soluble
15 | MGSDKIHHHHHHMIKLIATDIDGTLVKDGSLLIDPEYMSVIDRLIDKGIIFVVCSGRQFSSEFKLFAPIKHKLLYITDGGTVVRTPKEILKTYPMDEDIWKGMCRMVRDELPACDYFAATPDFCFAEDGGSPIFHLLRDSYGFEMREVDDITRLDRNDIIKFTVFHPDKCEELCTPVFIPAWNKKAHLAAAGKEWVDCNAKGVSKWTALSYLIDRFDLLPDEVCCFGDNLNDIEMLQNAGISYAVSNARQEVIAAAKHTCAPYWENGVLSVLKSFL | not soluble
16 | MGSDKIHHHHHHMNGFCARLRAITHNERLKMKIAVLLSGGVDSSYSAYSLKEQGHELVGIYLKLHASEKKHDLYIKNAQKACEFLGIPLEVLDFQKDFKSAVYDEFINAYEEGQTPNPCALCNPLMKFGLALDHALKLGCEKIATGHYARVKEIDKISYIQEALDKTKDQSYFLYALEHEVIAKLVFPLGDLLKKDIKPLALNAMPFLGTLETYKESQEICFVEKSYIDTLKKHVEVEKEGVVKNLQGEVIGTHKGYMQYTIGKRKGFSIKGALEPHFVVGIDAKKNELVVGKKEDLATHSLKAKNKSLMKDFKDGEYFIKARYRSVPAKAHVSLKDEVIEVGFKEPFYGVAKGQALVVYKDDILLGGGVIV | not soluble
17 | MGSDKIHHHHHHAQTEVLTGVTRGKDYGVVYALPKTQIEIEIKANKVNYKPGEFSKYADRYLRLTNVSAEPEEYWELNSVKVKPVGVPNSEATYFVKLKDKTVAPLMELTEEGLIKSINVPYSSNNAKNAANNAVAPQRKANPRDFLTEEILMASSTAKMAELVAKEIYNIRESKNALLRGQADNMPSDGAQLKIMLDNLNLQEEAMTEMFSGVRNKEEKTFTVRLTPDKEFDNEVAFRFSKKLGIVANNDLAGTPFYISLKDLKTVKIPQEDGKKKKEMEGIAYNVPGQAMVTLTDGKKKLYEGEIPVTQFGIIEYLAPVLFNKNSTIKVYFDPVTGGLLKVDREESK | not soluble
18 | MGSDKIHHHHHHTDDEEKDNNGQGSVSVETNYLPIADPYVMFYNNKYYAYGTGGTTAGEGFACFSSDDLKNWKREGQALSATDSYGTWGFWAPEVYYVESKKKFYLFYSAEEHICVATSTTPEGPFRQEVKQPIWSEKSIDTSLFIDDDGTPYLYFVRFTDGNVIWVAQMTDDLMSIKTETLNQCIKAEVSWELLQGKVAEGPSLLKKNGVYYLIYSANHYENKGYGVGYATSDTPMGPWVKYSKNPLLQGDAATGLVGTGHGAPFQCKDGSWKYIFHAHWSAAEIQPRTSYIKDFAISDQGVVTISGTVIKPRVLK | not soluble
19 | MGSDKIHHHHHHMPVDWPLRFPQLSGGASRPHSSLASTCVGGLQELMQSCYPPRGGCWIAAVLEDAGVERVCGLLGKGHAGVVLLVEWRGVAAALKVRRRDSRRGSLEPEARVAEKAALAGAAPEVYGYGEEFIAMAPALGPSLQDLAEEGLLTPQHILASIEAAWALDNAGILHGELHRPWRNVLFNPRKALIIDYDSASSGCGNVVKLVSGISRRVPSLLGLVRSERFRDLAKRYYREGCGKATYMEMLDEVKKHISVI | not soluble
20 | MGSDKIHHHHHHMDNNTLDEYRAVYLTAEDLRLAASILYNAYHDDPFFVDTLSSSDKFAYEQKLRAAIREELNTLWQQKQALIGLFDGAHLMGVACVVTQKVPLGEGRYWHWRLKMLLGTGWQSTQAMMKKESTILELLPSQRCGILQFIALAPNEQGKGLGHQLVQAVVSWCDEQPNLEGIGVFTTQEAHTHLFKQHDFVSLGELVIGSVTGQLLFYTGQQDE | not soluble
21 | MSQLVFIVFQDNDDSRYLAEAVMEDNPDAEMQHQPAMIRIQAEKRLVINRETMEEKLGRDWDVQEMLINVISIAGNVDEDDDHFILEWN | soluble
